PMC8429977, “Phosphorylation of slit diaphragm proteins NEPHRIN and NEPH1 upon binding of HGF promotes podocyte repair” (The Journal of Biological Chemistry, 2021)

B1: NEPHRIN Peptide-1 (peptide)
peptide: PDITILLSGQTISDISANVNEGSQQKL
notes: also called NEPHRIN-P1; NEPHRIN P1; source: synthetic peptide (Fmoc solid phase, HPLC purified)
B2: NEPH1 Peptide-1 (peptide)
peptide: QEGERVVFTCQATANPEIL
notes: also called NEPH-P1; NEPH1-P1; source: synthetic peptide (Fmoc solid phase, HPLC purified)

Molecular target: T1, purified human recombinant HGF (human, UniProt P14210 32-728)
T1 construct: hepatocyte growth factor, human, recombinant, purified; also called hepatocyte growth factor; recombinant human active HGF; source: bought: Sigma
T1 sequence (P14210 32-728): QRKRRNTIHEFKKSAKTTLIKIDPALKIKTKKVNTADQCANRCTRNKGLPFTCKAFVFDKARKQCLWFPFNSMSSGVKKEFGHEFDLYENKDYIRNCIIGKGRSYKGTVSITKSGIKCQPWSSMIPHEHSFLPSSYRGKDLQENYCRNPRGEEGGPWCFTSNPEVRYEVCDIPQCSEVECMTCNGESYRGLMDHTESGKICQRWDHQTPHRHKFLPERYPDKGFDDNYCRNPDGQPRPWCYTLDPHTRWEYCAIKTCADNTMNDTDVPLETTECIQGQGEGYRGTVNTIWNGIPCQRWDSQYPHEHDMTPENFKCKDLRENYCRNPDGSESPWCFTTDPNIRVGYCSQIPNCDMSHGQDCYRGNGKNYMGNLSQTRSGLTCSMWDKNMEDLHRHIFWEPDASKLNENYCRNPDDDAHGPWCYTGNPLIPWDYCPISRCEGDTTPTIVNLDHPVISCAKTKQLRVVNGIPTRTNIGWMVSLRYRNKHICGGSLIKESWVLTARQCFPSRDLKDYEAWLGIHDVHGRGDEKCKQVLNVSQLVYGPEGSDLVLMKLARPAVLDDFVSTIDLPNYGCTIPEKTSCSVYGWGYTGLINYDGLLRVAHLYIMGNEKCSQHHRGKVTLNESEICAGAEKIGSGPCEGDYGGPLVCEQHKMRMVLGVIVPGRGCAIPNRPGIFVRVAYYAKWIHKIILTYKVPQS
Test: far-Western, overlay or dot blot; 300 ng peptide spotted on nitrocellulose, blocked with fat-free milk, incubated with 1 μg recombinant purified HGF in 5% BSA in PBS at 4 °C, detected with anti-HGF antibody
Settings: both partners purified

Row | binding result | Binder
1 | binds | B1
2 | binds | B2
